One compound from article PMC9321335, “Palmitic Acid-Conjugated Radiopharmaceutical for Integrin αvβ3-Targeted Radionuclide Therapy” (Pharmaceutics, 2022) can be followed below.

Structures are written as SMILES.

In general, logD refers to lipophilicity at a set pH, counting ionised and neutral species.

The nature of one series: in vivo. Conditions: C57BL/6, mouse, 37 MBq, total radioactivity. Also on record: species or system C57BL/6 mice. The procedure: SPECT/CT imaging was performed using a small animal SPECT/CT imaging system (Mediso Inc., Budapest, Hungary). Each mouse bearing MC38 tumors was injected with a radiotracer at a radioactivity of 37 MBq/1 mCi. The mice were imaged at 1, 4, 12, 24, and 72 h after injection of ^177Lu-Palm-3PRGD2 (37 MBq, 2.7 nmol), and the mice in the blocking study were imaged at 1 h p.i. […] Pinhole SPECT images (peak, 56.1, 112.9, and 208.4 keV; 20% width; frame time, 25 s) were acquired, and CT images were subsequently acquired (50 kV; 0.67 mA; rotation, 210°; exposure time, 300 ms). The raw data were reconstructed in a whole-body region. The SPECT and CT images were then fused using Nucline v 2.01 (Mediso Inc., Budapest, Hungary). The maximum intensity projection (MIP) was determined for whole-body imaging from the posterior view.

A short description of a further series: physchem. It is filed as physicochemical. The procedure:
Briefly, the radiopharmaceuticals were prepared and purified with Sep-Pak-C18 cartridges and then dissolved in a mixed solution of 5 mL n-octanol and 5 mL PBS. After vortexing for 1 h, the mixture was centrifuged at 10,000 rpm for 10 min. Samples (100 μL, n = 4) from the n-octanol and PBS components were collected and counted using a γ-counter. The […] were calculated as the logarithm of the n-octanol/PBS ratio.

On the set-up of series [1]: species or system C57BL/6 mice. Particulars: mouse, in vivo. The procedure:
Female KM mice were randomly divided into three groups (n = 5). […] Blood samples obtained from the canthus vein were collected at different time points post injection (p.i.), weighed, and evaluated using a γ-counter. The results are presented as the percentage injected activity per gram (%IA/g). Nonlinear regression (curve fit) followed by two phase decay was performed using GraphPad Prism version 9.0.0 for Windows, GraphPad Software, San Diego, CA, USA, www.graphpad.com (accessed on 22 May 2022). And then the half-lives values were calculated and determined. Blood clearance studies were performed in normal KM mice. […] Blood clearance studies were also performed in C57BL/6 mice.

Take `CCCCCCCCCCCCCCCC(=O)N[C@@H](CCC(=O)NCCCC[C@H](NC(=O)CN1CCN(CC(=O)O)CCN(CC(=O)O)CCN(CC(=O)O)CC1)C(=O)NCCOCCOCCOCCOCCC(=O)N[C@@H](CCC(=O)NCCOCCOCCOCCOCCC(=O)NCCCC[C@@H]1NC(=O)[C@@H](Cc2ccccc2)NC(=O)[C@H](CC(=O)O)NC(=O)CNC(=O)[C@H](CCCNC(=N)N)NC1=O)C(=O)NCCOCCOCCOCCOCCC(=O)NCCCC[C@@H]1NC(=O)[C@@H](Cc2ccccc2)NC(=O)[C@H](CC(=O)O)NC(=O)CNC(=O)[C@H](CCCNC(=N)N)NC1=O)C(=O)O` [^177Lu-Palm-3PRGD2, [^177Lu]Lu-DOTA-Palm-3PRGD2, metal not drawn]: in the series “in vivo”, the tissue uptake per volume at 1 h came to 15 ± 0.13 %ID/mL. Further, in the series “physchem”, the logD was -1.25 ± 0.07. In series [1], the “Half-Life (T1/2α)” value turned out to be 2.08 min and the “Half-Life (T1/2β)” value is reported as 63.71 min.
